According to US20240092836A1:

target: Recombinant Human CTLA4-Fc chimera (R&D systems) (human) (UniProt P16410); assay: ELISA, signal over SA

In order of falling ELISA S/N(SA):
1. GGCLHPFLPIRSVHFCPR (peptide, not shown: large carriers; small tags and cut ends) [C4m#19-5th4w-NN6-67]  45.4
2. GGCLHPFLPIRSVHFCPF (peptide, not shown: large carriers; small tags and cut ends) [C4m#19-5th4w-NN6-15]  39.9
3. GGCLHPVLPIRSRHFCPV (peptide, not shown: large carriers; small tags and cut ends) [C4m#19-5th4w-NN6-25]  38.9
4. GGCWHPWLPILSPHFCPR (peptide, not shown: large carriers; small tags and cut ends) [C4m#19-5th4w-NN6-21]  37.5
5. GGCWHPFLPIRSLHFCPR (peptide, not shown: large carriers; small tags and cut ends) [C4m#19-5th4w-NN6-39]  35.6
6. GGCMHPFLPIRSMHFCPL (peptide, not shown: large carriers; small tags and cut ends) [C4m#19-5th4w-NN6-70]  35.5
7. GGCWHPFLPIRSYHFCPW (peptide, not shown: large carriers; small tags and cut ends) [C4m#19-5th2w-NNS6-14]  34.7
8. GGCPHPWLPIFSRHFCPV (peptide, not shown: large carriers; small tags and cut ends) [C4m#19-5th4w-NN6-47]  34.2
9. GGCLHPGLPIRSLHFCPR (peptide, not shown: large carriers; small tags and cut ends) [C4m#19-5th4w-NN6-54]  33.3
10. GGCFHPYLPIRSWHFCSR (peptide, not shown: large carriers; small tags and cut ends) [C4m#19-5th4w-NN6-81]  32.3
11. GGCFHPFLPIRSDHFCSR (peptide, not shown: large carriers; small tags and cut ends) [C4m#19-5th4w-NN6-34]  32.2
12. GGCRHPFLPIYSVHFCAC (peptide, not shown: large carriers; small tags and cut ends) [C4m#19-5th4w-NN6-53]  32.2
13. GGCRHPYLPIVSRHFCPF (peptide, not shown: large carriers; small tags and cut ends) [C4m#19-5th4w-NN6-4]  31.6
14. GGCWHPFLPIRSSHFCPS (peptide, not shown: large carriers; small tags and cut ends) [C4m#19-5th2w-NNS6-21]  31.1
15. GGCSHPQLPILSDHFCSA (peptide, not shown: large carriers; small tags and cut ends) [C4m#19-5th4w-NN6-20]  30.6
16. GGCRHPFLPIVSTHFCSR (peptide, not shown: large carriers; small tags and cut ends) [C4m#19-5th4w-NN6-77]  30.5
17. GGCRHPHLPIWSWHFCGR (peptide, not shown: large carriers; small tags and cut ends) [C4m#19-5th4w-NN6-23]  30.2
18. GGCRHPFLPIVSWHFCGR (peptide, not shown: large carriers; small tags and cut ends) [C4m#19-5th4w-NN6-44]  30.1
19. GGCVHPFLPIRSVHFCAL (peptide, not shown: large carriers; small tags and cut ends) [C4m#19-5th4w-NN6-92-1]  30
20. GGCRHPYLPIWSIHFCQK (peptide, not shown: large carriers; small tags and cut ends) [C4m#19-5th4w-NN6-19]  29.7
21. GGCVHPSLPILSVHFCPR (peptide, not shown: large carriers; small tags and cut ends) [C4m#19-5th4w-NN6-55-4]  29.5
22. GGCWHPFLPISSPHFCGR (peptide, not shown: large carriers; small tags and cut ends) [C4m#19-5th4w-NN6-65-1]  29.5
23. GGCMHPFLPIQSVHFCSR (peptide, not shown: large carriers; small tags and cut ends) [C4m#19-5th2w-NNS6-22]  29.3
24. GGCCHPWLPIVSTHFCGL (peptide, not shown: large carriers; small tags and cut ends) [C4m#19-5th4w-NN6-93]  28.9
25. GGCFHPYLPIRSWHFCGR (peptide, not shown: large carriers; small tags and cut ends) [C4m#19-5th4w-NN6-9]  28.8
26. GGCLHPFLPIRSVHFCGC (peptide, not shown: large carriers; small tags and cut ends) [C4m#19-5th4w-NN6-52]  28.6
27. GGCFHPFLPIRSLHFCCR (peptide, not shown: large carriers; small tags and cut ends) [C4m#19-5th4w-NN6-82]  28.3
28. GGCMHPYLPIKSVHFCPL (peptide, not shown: large carriers; small tags and cut ends) [C4m#19-5th2w-NNS6-55]  28.3
29. GGCKHPVLPIWSWHFCRI (peptide, not shown: large carriers; small tags and cut ends) [C4m#19-5th4w-NN6-50]  28.1
30. GGCWHPALPIRSWHFCPR (peptide, not shown: large carriers; small tags and cut ends) [C4m#19-5th4w-NN6-78]  27.9
31. GGCMHPYLPIVSVHFCPC (peptide, not shown: large carriers; small tags and cut ends) [C4m#19-5th4w-NN6-57]  27.7
32. GGCLHPHLPIWSLHFCPL (peptide, not shown: large carriers; small tags and cut ends) [C4m#19-5th4w-NN6-59]  27.6
33. GGCWHPWLPIYSHHFCPI (peptide, not shown: large carriers; small tags and cut ends) [C4m#19-5th4w-NN6-24]  27.6
34. GGCPHPFLPIWSVHFCPF (peptide, not shown: large carriers; small tags and cut ends) [C4m#19-5th4w-NN6-32]  27.2
35. GGCWHPFLPIQSLHFCGV (peptide, not shown: large carriers; small tags and cut ends) [C4m#19-5th4w-NN6-56]  27.1
36. GGCQHPWLPISSWHFCPR (peptide, not shown: large carriers; small tags and cut ends) [C4m#19-5th2w-NNS6-67]  25.5
37. GGCLHPWLPIVSVHFCAR (peptide, not shown: large carriers; small tags and cut ends) [C4m#19-5th4w-NN6-69-3]  24.9
38. GGCSHPFLPILSVHFCPF (peptide, not shown: large carriers; small tags and cut ends) [C4m#19-5th4w-NN6-69-1]  24.9
39. GGCWHPVLPIRSCHFCAV (peptide, not shown: large carriers; small tags and cut ends) [C4m#19-5th4w-NN6-79]  24.9
40. GGCLHPWLPIRSRHFCSR (peptide, not shown: large carriers; small tags and cut ends) [C4m#19-5th4w-NN6-68]  24.7
41. GGCLHPFLPIFSSHFCAL (peptide, not shown: large carriers; small tags and cut ends) [C4m3127-4th-NNS6-28]  23.2
42. GGCRHPFLPIWSWHFCPF (peptide, not shown: large carriers; small tags and cut ends) [C4m#19-5th4w-NN6-7]  23
43. GGCRHPYLPIASPHFCPG (peptide, not shown: large carriers; small tags and cut ends) [C4n#19-5th2w-NNS6-71]  22.9
44. GGCKHPVLPIVSLHFCPW (peptide, not shown: large carriers; small tags and cut ends) [C4m3127-4th-NNS6-90]  22.9
45. GGCWHPFLPIFSVHFCGC (peptide, not shown: large carriers; small tags and cut ends) [C4m#19-5th4w-NN6-85]  22.9
46. GGCLHPFLPISSWHFCGR (peptide, not shown: large carriers; small tags and cut ends) [C4m#19-5th4w-NN6-37]  22.7
47. GGCFHPYLPISSVHFCGR (peptide, not shown: large carriers; small tags and cut ends) [C4m#19-5th2w-NNS6-94]  22.4
48. GGCRHPFLPIWSHHFCVC (peptide, not shown: large carriers; small tags and cut ends) [C4m#19-5th4w-NN6-11]  22.1
49. GGCWHPYLPIVSWHFCSR (peptide, not shown: large carriers; small tags and cut ends) [C4m#19-5th4w-NN6-51]  22.1
50. GGCRHPWLPIVSWHFCSR (peptide, not shown: large carriers; small tags and cut ends) [C4m3127-4th-NNS6-87]  21.4
51. GGCLHPVLPIRSFHFCWR (peptide, not shown: large carriers; small tags and cut ends) [C4m#19-5th4w-NN6-87]  21.4
